Experimental data: the supplement of paper PMC12042874
± gives the uncertainty stated by the source.

Experiment: amyloid nucleation score (Sup35N fusion, yeast selection) (log enrichment); library NNK1; higher = more nucleation; inactive = no reads after selection
Method in brief: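 On medium lacking adenine and uracil, psi-negative yeast expressing peptides of 20 random codons fused to Sup35N were grown 7 days at 30°C after a 24-hour induction with 100 μM copper sulfate. Illumina sequencing of input and output plasmid inserts gave the reads, and sequences under 100 input reads were excluded. The nucleation score is the DiMSum log enrichment of output over input reads, centred on the mode score of non-aggregating sequences.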

| Substance | amyloid nucleation score |
| --- | --- |
| RHVNEQDILREQFLLMDFRK | 0.753 ± 0.72 |
| RHVVRR | 0.441 ± 0.36 |
| RICPKNCMSISVI | 0.305 ± 0.29 |
| RIDDSIFLDFWM | -0.214 ± 0.4 |
| RIENNFLSTSFVFSCLIGNM | 5.88 ± 0.07 |
| RIGETASYTL | -0.09 ± 0.47 |
| RIGTGSHLWII | -0.083 ± 0.6 |
| RIISGRLSSMFVNSIKVIMD | 0.889 ± 0.21 |
| RIKNGLPKGFFGKSLSPMRW | -0.161 ± 0.8 |
| RIRIVNITGAESPMLCLNHE | 4.42 ± 0.12 |
| RIRWSVVVNV | -0.002 ± 0.29 |
| RISNRCSCSCNFDQGGVRQP | 0.394 ± 1.1 |
| RIVILLKVIYFQFYRLQYIT | 0.03 ± 0.32 |
| RIVKSGGFNR | -0.089 ± 0.39 |
| RIVLILRSNHCQNSY | 0.641 ± 0.3 |
| RIWDCRYCKG | -0.184 ± 0.29 |
| RIWPRSMYRPSSGCVET | -0.281 ± 0.52 |
| RKNFLGIGQKLGSSSDWGG | -0.899 ± 1 |
| RKNSNDEASS | -0.339 ± 0.31 |
| RKRVCSGLRSFWSFFRCLRV | -0.711 ± 2.1 |
| RKVGVGKYLSHFECANRIWL | 0.3 ± 0.33 |
| RKVITDKTLL | -0.099 ± 0.45 |
| RLCKKSIHRDVASRFPNEDV | 1.02 ± 0.36 |
| RLFFSE | 0.117 ± 0.32 |
| RLFGLPKYCYVILFPVDVCH | 0.132 ± 0.21 |

| Substance | amyloid nucleation score |
| --- | --- |
| RLFVVEELESWGCFNWASIM | -1.7 ± 2.4 |
| RLKLTGFMGLSILERVTLCS | -0.396 ± 0.52 |
| RLLFITYSMVSKYNKCLIRG | 0.048 ± 0.74 |
| RLLRYMRDIR | -0.814 ± 0.57 |
| RLMRHNMPTVVEHAGSSRSN | -0.132 ± 0.31 |
| RLMTDHINSTVTSMGKGRIT | -0.026 ± 0.22 |
| RLNDNRYSYVVVS | -0.127 ± 0.64 |
| RLPLMNWFTAMA | 0.037 ± 0.42 |
| RLRITVTISATAGMMRRLHR | 2.39 ± 0.14 |
| RLRLWFVASRMVDKGSGLNV | 0.67 ± 0.49 |
| RLRSLDHWSWDAVMLMRAQL | 0.432 ± 0.34 |
| RLSGKFFICVGLKCVIWLRG | -1.09 ± 0.54 |
| RLSRLLTLISVACSTFLCVV | -1.84 ± 2.1 |
| RLWGYCMHSLVFDTNIWHPL | 0.461 ± 0.32 |
| RLWYGRSPWELVTIRSQARG | 0.14 ± 0.31 |
| RLYYLGMSGYLRHNPASCVL | -1.56 ± 2.7 |
| RMAPMMDP | -0.227 ± 1.1 |
| RMTWQM | -0.885 ± 2.1 |
| RMYLGVLIRHWIDSFAFGMQ | 0.193 ± 0.32 |
| RMYYAFVCGGEDMESEFPCY | -0.037 ± 1.4 |
| RNFFDLCGTSKRRMRIS | -0.15 ± 0.47 |
| RNFPTRCMCIQNYAKL | 2.22 ± 0.17 |
| RNIVIMYRNCLVKLNLETGS | 6.77 ± 0.053 |
| RNLEVIYNSI | 0.229 ± 0.52 |
| RNLTDQL | 2.99 ± 0.2 |

| Substance | amyloid nucleation score |
| --- | --- |
| RNNEDGRLKDRRRGLSHGPC | -0.763 ± 0.36 |
| RNSIVGCGYDVGTHVSDLGP | -0.035 ± 0.41 |
| RNVGFLFSKRDQPWLKSPGD | -0.983 ± 2.4 |
| RNYLIDV | -0.668 ± 0.4 |
| RPCIWFGTTCFYCTVFN | 5.76 ± 0.061 |
| RPLVGTGIYSVVRSLFRLCV | -1.16 ± 0.59 |
| RPWAWPRCRSCAST | 0.689 ± 0.37 |
| RQARFSFDLRFP | 0.567 ± 0.35 |
| RQDAVNNNTCNSISFNP | 0.048 ± 0.52 |
| RQGSDGVSSRKLWFFVRIAI | -0.383 ± 1.7 |
| RQSLRRSYHHRWKRDVMR | inactive |
| RQTGVYCKFNRSRDSILLSH | -0.782 ± 0.86 |
| RRGSNDDSYHRRQVDRKPMA | 0.166 ± 0.66 |
| RRLNCLILFKVVLLATIFCI | -1.42 ± 0.58 |
| RRLTILSTSPWCTPLELNSF | -0.282 ± 0.37 |
| RRNHNSRVVINVLMHVRCSI | 1.95 ± 0.1 |
| RRNVWASVTGGELWKGDLSR | -0.498 ± 1.1 |
| RRSGTLDGSGSGSCVRLPPN | -0.172 ± 0.5 |
| RSARIKNWSSLYLWMINSCV | 0.469 ± 0.32 |
| RSCGMTVGACSYVACVSYCT | 6.02 ± 0.066 |
| RSCGQFLSWSACPFVSLRRR | 0.274 ± 0.46 |
| RSCMRPFIGIMSSSPQIDKA | -0.53 ± 0.77 |
| RSETGMYSAHACLL | -0.314 ± 1.7 |
| RSEVYFNWGLNASMEVSPLC | -0.02 ± 0.41 |
| RSFLMPDE | 0.307 ± 0.46 |

| Substance | amyloid nucleation score |
| --- | --- |
| RSHGNGSGSRTVAF | -0.1 ± 0.49 |
| RSIFVP | inactive |
| RSIRC | -0.615 ± 1.1 |
| RSISSVLVSIFTKMG | 0.232 ± 0.35 |
| RSLFFV | -0.867 ± 0.86 |
| RSMDRTGSIAGRYCVKKMSS | 0.423 ± 0.3 |
| RSNCDFLSNNYGFLFGFLSQ | 0.525 ± 0.44 |
| RSPFWRDVKNKITVSPIFAN | 0.945 ± 0.61 |
| RSPRGSVFHMFI | 0.176 ± 1.6 |
| RSRVSIRSHSDRRGRVKRVV | 1.15 ± 0.65 |
| RSSGVSVGYFRAFS | inactive |
| RSSLVLTFELFRFGMYHQEM | 1.28 ± 0.15 |
| RSVCIVF | 0.105 ± 0.43 |
| RTCHSQICFSGRMYRLFVMI | 0.41 ± 0.48 |
| RTFHYAVNINRWLNKECGLH | -0.702 ± 1.7 |
| RTGITNTKPTQWSYNQSLSS | -0.291 ± 0.52 |
| RTGSAASG | -0.564 ± 0.38 |
| RTGVIWYY | -0.677 ± 1 |
| RTHEFQTLMEAFRSNTAVSA | -0.031 ± 0.22 |
| RTIHAIERDDCLRGNSGKNN | 1.12 ± 0.57 |
| RTLHRLLSSINAKGDRYRLR | -0.935 ± 1.9 |
| RTRAGKYMYVSSQPTCSILI | 0.312 ± 0.56 |
| RTSTQFPSHQYIQVVLCIS | inactive |
| RVCVFIN | inactive |
| RVCVLFSCWRTMYMIWNSRE | 5.71 ± 0.061 |

| Substance | amyloid nucleation score |
| --- | --- |
| RVDGHTVR | 2.4 ± 0.14 |
| RVDPLV | inactive |
| RVDQVKSGFDMLYYPHWHQL | 0.532 ± 0.37 |
| RVDRMKNIFVRYRTVRVHGG | 9.304 ± 0.045 |
| RVEVSGVLALANPLVPF | 0.92 ± 0.6 |
| RVFKFSPYILKAILEVSNA | 0.458 ± 0.32 |
| RVGDYGKHRW | 1.31 ± 0.14 |
| RVGYH | -0.135 ± 0.35 |
| RVIGPTHYLQLCNIMFCDYI | 7.206 ± 0.051 |
| RVISPSCKWDQCSPMCS | -0.499 ± 1.1 |
| RVLANCLCFKYNETRRGCTL | 0.218 ± 0.95 |
| RVLIRYQV | 0.345 ± 0.58 |
| RVLNMFYVMNCAIFWVVEAC | 2.49 ± 0.18 |
| RVLSSTNHSAYHWIEKGSTF | 1.01 ± 0.31 |
| RVMVFGRHNEDVSKFSISGK | 4 ± 0.1 |
| RVRAVCVLFRTNAAFPAGTH | -1.03 ± 0.74 |
| RVRTPHNWTWGITCTWVFKF | 0.326 ± 0.51 |
| RVTSNEKRNYRVSRICPHLT | -0.271 ± 1 |
| RVWCLRTLKCLIAAR | 0.189 ± 0.45 |
| RVYYSRYYVFDHSYFDTRRG | -1.07 ± 1.3 |
| RWCGKPRICFSISEAVDKLH | -0.2 ± 0.21 |
| RWEFGLRHGKSVKWSIPSLY | -0.085 ± 0.95 |
| RWGAYVYGQSVSINGIRIVL | 6.665 ± 0.045 |
| RWLHVIKL | 2.21 ± 0.35 |
| RWSILTIVSMGP | 0.196 ± 1.2 |

| Substance | amyloid nucleation score |
| --- | --- |
| RWSPV | 1.47 ± 0.54 |
| RWTVLRIWIYEVQKIAARRS | 0.098 ± 0.44 |
| RWYVFWQSMGCVRSGVWVKG | 0.195 ± 0.31 |
| RWYWIF | 4.6 ± 0.069 |
| RYDPMLWINLYCFLITGG | 0.334 ± 0.39 |
| RYFSRAVACDHNES | -0.547 ± 0.84 |
| RYHPMG | -0.074 ± 0.93 |
| RYHSMYTNSNTRGFGSSLQL | inactive |
| RYHSY | -0.008 ± 0.77 |
| RYICVTFISLGELPFYWWFT | -1.55 ± 0.83 |
| RYILLVYVTCDRKVRAMKGV | 0.883 ± 0.33 |
| RYLLKLFRIVGFGVVFMMSK | -0.511 ± 0.34 |
| RYLVVQLRMGLYLFAFKDPD | -0.686 ± 0.42 |
| RYSSPSRGTAMFSLLYLYVY | 0.694 ± 0.97 |
| SAFVDWSAGSSNDFFFF | -0.577 ± 0.94 |
| SAKNTGYMWMLIWLG | 0.204 ± 0.79 |
| SALGFFRAYQSIKRTLFRRR | -0.064 ± 0.56 |
| SALIAMYYHSSGTMWIQYFC | 0.145 ± 0.83 |
| SALIILMHVV | -0.761 ± 1.2 |
| SALNSSRGKFICSRRCHGEE | 0.078 ± 0.23 |
| SALWRNFSALRSNWK | -0.325 ± 0.34 |
| SANCIWFFL | 7.105 ± 0.071 |
| SARQVSGLTWVM | 2.52 ± 0.11 |
| SARSWDLQMCFSCLYR | 7.28 ± 0.08 |
| SASAISTPGGCYDGYLFDSQ | -0.457 ± 0.61 |

| Substance | amyloid nucleation score |
| --- | --- |
| SATNCRTGKDCRERGHTLGL | 0.628 ± 0.33 |
| SAVQFG | -0.539 ± 0.54 |
| SAVVAVPVPYRDHQCPLPRV | 1.13 ± 0.52 |
| SAWWIGMMWCSSSSYLEIGG | -0.586 ± 0.39 |
| SCFPLLRQFAGWLSWSRT | 2.28 ± 0.18 |
| SCFVSSSAIPWVIHSKFDLG | 0.143 ± 0.55 |
| SCGLYFAGVEVGGAVSLCKG | 0 ± 0.48 |
| SCHIKK | 0.12 ± 0.39 |
| SCIWIWICNHSMFGMETGLG | 4.12 ± 0.1 |
| SCLCYEDRSLHGYWNMSYAQ | 0.938 ± 0.49 |
| SCLMLGTGGETLRSRPPRKV | -1.45 ± 1.1 |
| SCLWGMRLKL | -0.366 ± 0.8 |
| SCMPHYEFMWRGAQAPWGLD | 0.183 ± 0.5 |
| SCPVLHAVPNYCAKALLSLR | -0.794 ± 0.64 |
| SCQIGLPVLTYRTATVGHKS | 0.06 ± 1 |
| SCTASMASPNLEF | inactive |
| SCYVLVMYCYDMSFCDTLCE | 0.024 ± 0.47 |
| SDAITRVIRHMNPFCLTALL | -0.928 ± 0.95 |
| SDDLFVNFSMSVWFLKVSLR | 0.515 ± 0.34 |
| SDDLRMHTHGGGYSGFWKGY | inactive |
| SDFAYCRCNLSVYRGMILTQ | 0.064 ± 0.25 |
| SDFQRE | 3.91 ± 0.099 |
| SDGASPFRWCFHSLRMVSAR | -0.647 ± 1.1 |
